Holding throughout (assay): SPR (Biacore); binding relative to GpH7-A5/GpH7-B3/GpL16-k0 x100;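 further: antibodies captured on a chip surface, soluble FcγR flowed over in HBS-EP+ running buffer at 25 °C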
On the technique in general: In SPR one partner is held on a chip, and binding of the other changes the refractive index at the surface.

Test [1] deals with T1, FcγRIIa(H) extracellular domain, C-terminal His tag (human, UniProt P12318 34-217).
T1 construct: extracellular domain; Allotype H131; also called 2aH
T1 sequence: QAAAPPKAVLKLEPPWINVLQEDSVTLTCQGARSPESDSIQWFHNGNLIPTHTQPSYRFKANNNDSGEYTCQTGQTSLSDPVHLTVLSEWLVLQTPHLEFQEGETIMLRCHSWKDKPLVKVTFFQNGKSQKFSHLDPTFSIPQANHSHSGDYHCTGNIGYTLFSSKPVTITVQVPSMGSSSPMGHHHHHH

Test [2] has as its target T2, FcγRIIa(R) extracellular domain, C-terminal His tag (human, UniProt P12318 34-217).
T2 construct: extracellular domain; Allotype R131; also called 2aR
T2 sequence: T1 sequence with H134R

For test [3], the target named is T3, FcγRIIIa extracellular domain, C-terminal His tag (human, UniProt P08637 17-208).
T3 construct: extracellular domain; also called 3a

Test [4] deals with T4, FcγRIIb extracellular domain, C-terminal His tag (human, UniProt P31994 43-217).
T4 construct: extracellular domain; also called 2b
T4 sequence: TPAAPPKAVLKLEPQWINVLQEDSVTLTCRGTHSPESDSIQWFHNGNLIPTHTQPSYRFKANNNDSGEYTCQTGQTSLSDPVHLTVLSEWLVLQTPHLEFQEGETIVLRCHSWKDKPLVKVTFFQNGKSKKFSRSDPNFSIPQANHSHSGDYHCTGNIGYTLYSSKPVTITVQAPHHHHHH

The target in test [5] is T5, FcγRIa extracellular domain, C-terminal His tag (human, UniProt P12314 16-292).
T5 construct: extracellular domain; also called 1a

Residue numbers refer to the chain shown, from its start.

T3 sequence (P08637 other isoform, or with tags, fused parts or gaps): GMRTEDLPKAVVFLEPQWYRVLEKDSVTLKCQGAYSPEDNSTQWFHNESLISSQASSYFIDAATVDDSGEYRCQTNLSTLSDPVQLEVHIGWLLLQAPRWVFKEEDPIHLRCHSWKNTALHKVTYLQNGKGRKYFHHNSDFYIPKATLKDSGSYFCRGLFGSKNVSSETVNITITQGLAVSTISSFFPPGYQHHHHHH
T5 sequence (P12314 other isoform, or with tags, fused parts or gaps): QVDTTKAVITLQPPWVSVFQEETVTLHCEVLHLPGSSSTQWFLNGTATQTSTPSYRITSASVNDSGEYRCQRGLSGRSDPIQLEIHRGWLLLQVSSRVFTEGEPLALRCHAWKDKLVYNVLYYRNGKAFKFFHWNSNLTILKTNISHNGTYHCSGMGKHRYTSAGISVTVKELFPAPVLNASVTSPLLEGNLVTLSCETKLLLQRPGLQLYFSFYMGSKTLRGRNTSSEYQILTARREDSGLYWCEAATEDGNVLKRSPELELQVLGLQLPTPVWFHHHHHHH

B1: GpH7-A5/GpH7-B3 variant K326_09D/GpL16-k0 (antibody, human IgG1, kappa)
heavy 1: not shown
heavy 2: not shown
light: DIVMTQSPLSLPVTPGEPASISCQASESLVHSNRNTYLHWYLQKPGQSPQLLIYKVSNRFSGVPDRFSGSGSGTDFTLKISRVEAEDVGVYYCSQNTHVPPTFGQGTKVEIERTVAAPSVFIFPPSDEQLKSGTASVVCLLNNFYPREAKVQWKVDNALQSGNSQESVTEQDSKDSTYSLSSTLTLSKADYEKHKVYACEVTHQGLSSPVTKSFNRGEC
notes: He Ab: anti-glypican 3 IgG1 heterodimer, only the GpH7-B3 chain mutated; position in EU numbering; also called He Ab
As to B1, in test [1], the “He/Con 2aH” value amounted to 115%. For the same molecule, the “He/Con 2aR” value in test [2] worked out at 142%. Besides, the “He/Con 3a” value in test [3] is 148%. For the same molecule, in test [4], the “He/Con 2b” value came out at 216%. The “He/Con 1a” value in test [5] came out at 109%.

B2: GpH7-A5/GpH7-B3 variant L328_16H/GpL16-k0 (antibody, human IgG1, kappa)
heavy 1: not shown
heavy 2: not shown
light: B1 light
notes: as for B1
Turning to B2, in test [1], the “He/Con 2aH” value amounted to 84.5%. In addition, the “He/Con 2aR” value in test [2] came out at 106%. In addition, in test [3], the “He/Con 3a” value amounted to 55.9%. Further, in test [4], the “He/Con 2b” value was 100%. Further, the “He/Con 1a” value in test [5] was 98.5%.

B3: GpH7-A5/GpH7-B3 variant L328_07I/GpL16-k0 (antibody, human IgG1, kappa)
heavy 1: not shown
heavy 2: not shown
light: B1 light
notes: as for B1
In the case of B3, the “He/Con 2aH” value in test [1] was 111%. Besides, the “He/Con 2aR” value in test [2] stood at 160%. For the same molecule, the “He/Con 3a” value in test [3] turned out to be 86.4%. Further, the “He/Con 2b” value in test [4] worked out at 200%. Besides, the “He/Con 1a” value in test [5] is 102%.

B4: GpH7-A5/GpH7-B3 variant L328_19Q/GpL16-k0 (antibody, human IgG1, kappa)
heavy 1: not shown
heavy 2: not shown
light: B1 light
notes: as for B1
In the case of B4, in test [1], the “He/Con 2aH” value is 103%. Besides, the “He/Con 2aR” value in test [2] is 115%. Further, the “He/Con 3a” value in test [3] was found to be 83.4%. In addition, in test [4], the “He/Con 2b” value came out at 131%. In addition, in test [5], the “He/Con 1a” value stood at 104%.

B5: GpH7-A5/GpH7-B3 variant K326_19Q/GpL16-k0 (antibody, human IgG1, kappa)
heavy 1: not shown
heavy 2: not shown
light: B1 light
notes: as for B1
Take B5: the “He/Con 2aH” value in test [1] was determined as 106%. Besides, in test [2], the “He/Con 2aR” value was 124%. Moreover, the “He/Con 3a” value in test [3] was 117%. For the same molecule, in test [4], the “He/Con 2b” value was found to be 156%. In addition, in test [5], the “He/Con 1a” value amounted to 108%.

B6: GpH7-A5/GpH7-B3 variant L328_03V/GpL16-k0 (antibody, human IgG1, kappa)
heavy 1: not shown
heavy 2: not shown
light: B1 light
notes: as for B1
Turning to B6, the “He/Con 2aH” value in test [1] came to 116%. Besides, the “He/Con 2aR” value in test [2] came to 150%. The “He/Con 3a” value in test [3] stood at 80.9%. The “He/Con 2b” value in test [4] is 157%. For the same molecule, the “He/Con 1a” value in test [5] was determined as 103%.

B7: GpH7-A5/GpH7-B3 variant L328_14T/GpL16-k0 (antibody, human IgG1, kappa)
heavy 1: not shown
heavy 2: not shown
light: B1 light
notes: as for B1
For B7, the “He/Con 2aH” value in test [1] was determined as 138%. The “He/Con 2aR” value in test [2] was 153%. Moreover, the “He/Con 3a” value in test [3] worked out at 77.4%. Moreover, in test [4], the “He/Con 2b” value was 176%. Moreover, in test [5], the “He/Con 1a” value stood at 103%.

B8: GpH7-A5/GpH7-B3 variant L328_06M/GpL16-k0 (antibody, human IgG1, kappa)
heavy 1: not shown
heavy 2: not shown
light: B1 light
notes: as for B1
B8: the “He/Con 2aH” value in test [1] was found to be 122%. Besides, the “He/Con 2aR” value in test [2] came to 148%. Further, the “He/Con 3a” value in test [3] amounted to 80.8%. Besides, the “He/Con 2b” value in test [4] stood at 176%. Further, in test [5], the “He/Con 1a” value worked out at 101%.

B9: GpH7-A5/GpH7-B3 variant L328_04F/GpL16-k0 (antibody, human IgG1, kappa)
heavy 1: not shown
heavy 2: not shown
light: B1 light
notes: as for B1
Consider B9, for which, in test [1], the “He/Con 2aH” value worked out at 84.9%. In test [2], the “He/Con 2aR” value worked out at 177%. The “He/Con 3a” value in test [3] was 81.5%. In addition, in test [4], the “He/Con 2b” value is 273%. Besides, the “He/Con 1a” value in test [5] stood at 100%.

B10: GpH7-A5/GpH7-B3 variant K326_14T/GpL16-k0 (antibody, human IgG1, kappa)
heavy 1: not shown
heavy 2: not shown
light: B1 light
notes: as for B1
With B10, in test [1], the “He/Con 2aH” value was determined as 119%. Besides, the “He/Con 2aR” value in test [2] is 128%. Besides, the “He/Con 3a” value in test [3] worked out at 140%. In addition, the “He/Con 2b” value in test [4] stood at 168%. For the same molecule, the “He/Con 1a” value in test [5] was 109%.

B11: GpH7-A5/GpH7-B3 variant L328_13S/GpL16-k0 (antibody, human IgG1, kappa)
heavy 1: not shown
heavy 2: not shown
light: B1 light
notes: as for B1
Regarding B11, in test [1], the “He/Con 2aH” value was 146%. In addition, the “He/Con 2aR” value in test [2] came to 150%. Moreover, the “He/Con 3a” value in test [3] came to 73.7%. Besides, in test [4], the “He/Con 2b” value came to 186%. The “He/Con 1a” value in test [5] was 101%.

B12: GpH7-A5/GpH7-B3 variant K326_18N/GpL16-k0 (antibody, human IgG1, kappa)
heavy 1: not shown
heavy 2: not shown
light: B1 light
notes: as for B1
On to B12, for which the “He/Con 2aH” value in test [1] turned out to be 113%. The “He/Con 2aR” value in test [2] is 110%. Further, in test [3], the “He/Con 3a” value was found to be 134%. The “He/Con 2b” value in test [4] came out at 118%. The “He/Con 1a” value in test [5] was found to be 110%.

B13: GpH7-A5/GpH7-B3 variant K326_10E/GpL16-k0 (antibody, human IgG1, kappa)
heavy 1: not shown
heavy 2: not shown
light: B1 light
notes: as for B1
Turning to B13, in test [1], the “He/Con 2aH” value is 106%. Also, the “He/Con 2aR” value in test [2] worked out at 142%. For the same molecule, the “He/Con 3a” value in test [3] is 138%. Moreover, in test [4], the “He/Con 2b” value is 224%. Further, in test [5], the “He/Con 1a” value amounted to 109%.

B14: GpH7-A5/GpH7-B3 variant L328_02A/GpL16-k0 (antibody, human IgG1, kappa)
heavy 1: not shown
heavy 2: not shown
light: B1 light
notes: as for B1
For the molecule B14, the “He/Con 2aH” value in test [1] was determined as 154%. For the same molecule, the “He/Con 2aR” value in test [2] is 150%. In test [3], the “He/Con 3a” value was determined as 81.3%. Besides, in test [4], the “He/Con 2b” value was found to be 180%. In test [5], the “He/Con 1a” value came out at 101%.

B15: GpH7-A5/GpH7-B3 variant L328_15Y/GpL16-k0 (antibody, human IgG1, kappa)
heavy 1: not shown
heavy 2: not shown
light: B1 light
notes: as for B1
On to B15, for which the “He/Con 2aH” value in test [1] stood at 106%. Moreover, the “He/Con 2aR” value in test [2] was 174%. In addition, the “He/Con 3a” value in test [3] was found to be 70.2%. In test [4], the “He/Con 2b” value worked out at 240%. The “He/Con 1a” value in test [5] stood at 104%.

B16: GpH7-A5/GpH7-B3 variant K326_15Y/GpL16-k0 (antibody, human IgG1, kappa)
heavy 1: not shown
heavy 2: not shown
light: B1 light
notes: as for B1
In the case of B16, the “He/Con 2aH” value in test [1] is 102%. For the same molecule, the “He/Con 2aR” value in test [2] came out at 131%. For the same molecule, the “He/Con 3a” value in test [3] turned out to be 124%. In addition, the “He/Con 2b” value in test [4] worked out at 179%. The “He/Con 1a” value in test [5] stood at 111%.

B17: GpH7-A5/GpH7-B3 variant K326_12R/GpL16-k0 (antibody, human IgG1, kappa)
heavy 1: not shown
heavy 2: not shown
light: B1 light
notes: as for B1
Regarding B17, the “He/Con 2aH” value in test [1] is 105%. Besides, in test [2], the “He/Con 2aR” value was 98.6%. Further, in test [3], the “He/Con 3a” value stood at 101%. The “He/Con 2b” value in test [4] is 100%. In addition, in test [5], the “He/Con 1a” value is 105%.

B18: GpH7-A5/GpH7-B3 variant K326_13S/GpL16-k0 (antibody, human IgG1, kappa)
heavy 1: not shown
heavy 2: not shown
light: B1 light
notes: as for B1
With B18, in test [1], the “He/Con 2aH” value was found to be 110%. Moreover, in test [2], the “He/Con 2aR” value was 119%. Besides, the “He/Con 3a” value in test [3] was determined as 118%. In addition, the “He/Con 2b” value in test [4] is 139%. The “He/Con 1a” value in test [5] came out at 106%.

B19: GpH7-A5/GpH7-B3 variant N325_09D/GpL16-k0 (antibody, human IgG1, kappa)
heavy 1: not shown
heavy 2: not shown
light: B1 light
notes: as for B1
Turning to B19, in test [1], the “He/Con 2aH” value was determined as 55.3%. Also, the “He/Con 2aR” value in test [2] amounted to 111%. In addition, the “He/Con 3a” value in test [3] amounted to 53%. For the same molecule, in test [4], the “He/Con 2b” value was determined as 139%. For the same molecule, the “He/Con 1a” value in test [5] worked out at 105%.

B20: GpH7-A5/GpH7-B3 variant K326_16H/GpL16-k0 (antibody, human IgG1, kappa)
heavy 1: not shown
heavy 2: not shown
light: B1 light
notes: as for B1
B20: the “He/Con 2aH” value in test [1] was 102%. The “He/Con 2aR” value in test [2] worked out at 115%. Also, the “He/Con 3a” value in test [3] is 106%. Further, in test [4], the “He/Con 2b” value turned out to be 133%. For the same molecule, in test [5], the “He/Con 1a” value stood at 109%.

B21: GpH7-A5/GpH7-B3 variant L328_18N/GpL16-k0 (antibody, human IgG1, kappa)
heavy 1: not shown
heavy 2: not shown
light: B1 light
notes: as for B1
Consider B21, for which, in test [1], the “He/Con 2aH” value came out at 80.6%. The “He/Con 2aR” value in test [2] stood at 76.4%. Further, the “He/Con 3a” value in test [3] is 51.1%. For the same molecule, the “He/Con 2b” value in test [4] turned out to be 101%. For the same molecule, in test [5], the “He/Con 1a” value is 101%.

Source of the values: patent publication US20260167699A1 (Chugai, published 2026).
